# In patent publication CN106831988A (SHENZHEN INST OF ADV TECH CAS, dated 2017):
# Molecular target: T1, PD-1蛋白 (PD-1抗原) (human, UniProt Q15116 25-167, limits assumed)
# T1 construct: The construct is not described; also called A蛋白
# Assay: SPR, Bio-Rad ProteOn XPR36, antibody coupled to channel L6, PD-1 antigen as analyte
# T1 sequence (Q15116 25-167 limits assumed): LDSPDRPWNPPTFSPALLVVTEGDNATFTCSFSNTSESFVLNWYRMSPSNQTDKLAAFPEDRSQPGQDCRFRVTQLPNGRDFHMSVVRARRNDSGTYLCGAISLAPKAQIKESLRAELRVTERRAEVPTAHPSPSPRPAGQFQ
binder,measurement,value
"抗人PD-1的单克隆抗体2D1 (2D1株单克隆抗体) (antibody, V domains shown, Mouse monoclonal antibody from a Balb/c x SP2/0 hybridoma; It was purified from ascites, and hybridoma supernatant was used in flow cytometry; it was detected with anti-mouse IgG; also called 2D1-1) VH: QVQLQQSGDDLVKPGASVKLSCKASGYTFTSYWINWIKQRPGQGLEWIGRIAPGSGSTYYNEMFKGKATLTVDTSSSTAYIQLSSLSSEDSAVYFCARLGQYYAMDYWGQGTTLTVSS VL: DIVMTQTPLSLPVSLGDQASISCRSSQSLVHSNGNTYLHWYLQKPGQSPKLLIYKVSNRFSGVPDRFSGSGSGTDFTLKISRVEAEDLGVYFCSQSTHVPYTFGGGTKLELKR",Kd,0.134 nM
same,koff,2.94e-05 s⁻¹
same,kon,220000 M⁻¹ s⁻¹
